From patent publication US20240076375A1 (BEIGENE, published 2024)
Each block holds one binder with its values, some of them ahead of it.

Columns and labels:
[1] = molecular target: T1, Tim-3-his (human, UniProt Q8TDQ0 22-202, limits assumed); assay: SPR (BIAcore T-200), antibody captured by anti-human Fab, Tim-3-his flowed
T1 construct: not shown: his tag

[2] = molecular target: T2, Tim-3 (form used in the assay not stated) (human, UniProt Q8TDQ0 22-202, limits assumed); assay: SPR, Fab, Test 1
[3] = molecular target: T2, Tim-3 (form used in the assay not …); assay: SPR, Fab, mean of Test 1 and Test 2
[4] = molecular target: T2, Tim-3 (form used in the assay not …); assay: SPR, Fab, Test 2
[5] = molecular target: T1, Tim-3-his; assay: BLI (ForteBio Octet), antibody captured on protein A tips, dipped in Tim-3-his solution
[6] = molecular target: Tim-3-mIgG2a (human; mouse, UniProt Q8TDQ0 22-202); assay: ELISA on Tim-3-mIg, absorbance at OD450nm against antibody concentration
[7] = molecular target: T2, Tim-3 (form used in the assay not …); assay: ELISA on Tim-3, absorbance at OD450nm against antibody concentration
[8] = molecular target: T3, Human Fc-tagged Tim-3 IgV domain (human, UniProt Q8TDQ0 22-130, limits assumed); assay: SPR (BIAcore T-200), Fc-tagged Tim-3 IgV domain captured by anti-human IgG, antibody flowed
T3 construct: not shown: human Fc tag
T3 sequence: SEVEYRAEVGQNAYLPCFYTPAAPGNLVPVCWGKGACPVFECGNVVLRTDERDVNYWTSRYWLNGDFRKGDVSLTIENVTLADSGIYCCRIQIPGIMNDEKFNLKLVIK

Kd [1]: 19400 pM
koff [1]: 0.0122 s⁻¹
kon [1]: 627000 M⁻¹ s⁻¹
B1: Ab2 in human IgG4 format with S228P mutation (antibody, V domains shown)
VH: EVQLLESGGGLVQPGGSLRLSCAAASGFTFSSYDMSWVRQAPGKGLDWVSTISGGGTYTYYQDSVKGRFTISRDNSKNTLYLQMNSLRAEDTAVYYCASMDYWGQGTTVTVSS
VL: DIQMTQSPSSLSASVGDRVTITCRASQSIRRYLNWYHQKPGKAPKLLIYGASTLQSGVPSRFSGSGSGTDFTLTISSLQPEDFAVYYCQQSHSAPLTFGGGTKVEIKR
notes: Known Tim-3 antibody, generated in human IgG4 format with S228P mutation

Kd [2]: 434 pM
koff [2]: 0.00074 s⁻¹
kon [2]: 1.71e+06 M⁻¹ s⁻¹
Kd [3]: 419 pM
Kd [4]: 404 pM
koff [4]: 0.000795 s⁻¹
kon [4]: 1.97e+06 M⁻¹ s⁻¹
B2: hu425-2-2 Fab (Fab, V domains shown)
VH: EVQLVESGGGLVQPGGSLRLSCAASGFTFSRYAMSWVRQAPGKGLEWVAAISSGGSLYYPDSVKGRFTISRDNAKNTLYLQMNSLRAEDTAVYYCARGREADGGYFDYWGQGTLVTVSS
VL: EIVMTQSPATLSVSPGERATLSCRASESVEYYGTSLMQWYQQKPGQAPRLLIYAASNVESGIPARFSGSGSGTEFTLTISSLQSEDFAVYYCQQSLKVPLTFGGGTKVEIK
notes: Fab prepared from the mAb with the Pierce Fab Preparation Kit; Only the variable domains are tied to the name. hu425s were engineered in the human IgG1 format

Kd [1]: 1470 pM
koff [1]: 0.000778 s⁻¹
kon [1]: 528000 M⁻¹ s⁻¹
B3: Hu425-2-3b in human IgG4 format with S228P mutation (antibody, V domains shown)
VH: EVQLVESGGGLVQPGGSLRLSCAASGFTFSRYAMSWVRQAPGKGLEWVAAISSGGSLYYPDSVKGRFTISRDNAKNTLYLQMNSLRAEDTAVYYCARGREADGGYFDYWGQGTLVTVSS
VL: EIVLTQSPATLSVSPGERATLSCRASESVEYYGTSLMQWYQQKPGQAPRLLIYAASNVESGIPARFSGSGSGTEFTLTISSLQSEDFAVYYCQQSLKVPLTFGGGTKVEIK

binding result [5]: no binding
B4: hybrid antibody 425 HC/Ab1 LC (antibody, V domains shown)
VH: EVQLVESGGGLVQPGGSLRLSCAASGFTFSRYAMSWVRQAPGKGLEWVAAISSGGSLYYPDSVKGRFTISRDNAKNTLYLQMNSLRAEDTAVYYCARGREADGGYFDYWGQGTLVTVSS
VL: AIQLTQSPSSLSASVGDRVTITCRASESVEYYGTSLMQWYQQKPGKAPKLLIYAASNVESGVPSRFSGSGSGTDFTLTISSLQPEDFATYFCQQSRKDPSTFGGGTKVEIK

Kd [2]: 159 pM
koff [2]: 0.000108 s⁻¹
kon [2]: 679000 M⁻¹ s⁻¹
Kd [3]: 253 pM
Kd [4]: 346 pM
koff [4]: 0.000435 s⁻¹
kon [4]: 1.26e+06 M⁻¹ s⁻¹
B5: hu425-1-1 Fab (Fab, V domains shown)
VH: EVQLVESGGGLVQPGGSLRLSCAASGFTFSRYAMSWVRQAPGKGLEWVAAISSGGSLYFPDSVKGRFTISRDNAKNSCYLQMNSLRAEDTAVYYCARGREADGGYFDYWGQGTLVTVSS
VL: DIVLTQSPATLSVSPGERATLSCRASESVEYYGTSLMQWYQQKPGQAPRLLIYAASNVESGVPARFSGSGSGTDFTLTISSLQSEDFAVYYCQQSMKVPLTFGGGTKVEIKR
notes: Fab prepared from the mAb with the Pierce Fab Preparation Kit

EC50 (read off the curve) [6]: ~0.01 µg/mL
B6: hu425-2-3b (antibody, V domains shown)
VH: EVQLVESGGGLVQPGGSLRLSCAASGFTFSRYAMSWVRQAPGKGLEWVAAISSGGSLYYPDSVKGRFTISRDNAKNTLYLQMNSLRAEDTAVYYCARGREADGGYFDYWGQGTLVTVSS
VL: EIVLTQSPATLSVSPGERATLSCRASESVEYYGTSLMQWYQQKPGQAPRLLIYAASNVESGIPARFSGSGSGTEFTLTISSLQSEDFAVYYCQQSLKVPLTFGGGTKVEIK
notes: Full chains are not tied to the name

binding result [7]: no binding
B7: hu425-2F-1 (antibody, human IgG1, kappa, V domains shown)
VH: EVQLVESGGGLVQPGGSLRLSCAASGFTFSRYAMSWVRQAPGKGLEWVAAISSGGSLYFPDSVKGRFTISRDNAKNSCYLQMNSLRAEDTAVYYCARGREADAGYFDYWGQGTLVTVSS
VL: DIVLTQSPATLSVSPGERATLSCRASESVEYYGTSLMQWYQQKPGQAPRLLIYAASNVESGVPARFSGSGSGTDFTLTISSLQSEDFAVYYCQQSMKVPLTFGGGTKVEIKR
notes: Single amino acid mutation from hu425-1-1; also called G103A

Kd [2]: 356 pM
koff [2]: 0.00057 s⁻¹
kon [2]: 1.6e+06 M⁻¹ s⁻¹
Kd [3]: 361 pM
Kd [4]: 366 pM
koff [4]: 0.00064 s⁻¹
kon [4]: 1.75e+06 M⁻¹ s⁻¹
B8: hu425-2-3b Fab (Fab, V domains shown)
VH: EVQLVESGGGLVQPGGSLRLSCAASGFTFSRYAMSWVRQAPGKGLEWVAAISSGGSLYYPDSVKGRFTISRDNAKNTLYLQMNSLRAEDTAVYYCARGREADGGYFDYWGQGTLVTVSS
VL: EIVLTQSPATLSVSPGERATLSCRASESVEYYGTSLMQWYQQKPGQAPRLLIYAASNVESGIPARFSGSGSGTEFTLTISSLQSEDFAVYYCQQSLKVPLTFGGGTKVEIK
notes: Fab prepared from the mAb with the Pierce Fab Preparation Kit; Only the variable domains are tied to the name

Kd [8]: 58 pM
koff [8]: 9.33e-05 s⁻¹
kon [8]: 1.59e+06 M⁻¹ s⁻¹
B9: mu425 (antibody, V domains shown)
VH: EVKLVESGGGLVKPGGSLKLSCAASGFTFSRYAMSWVRQIPEKRLEWVAAISSGGSLYFPDSVKGRFTISRDNARNICYLQMNSLRSDDTAMYYCARGREADGGYFDYWGQGTTLTVSS
VL: DIVLTQSPASLAVSLGQRATISCRASESVEYYGTSLMQWYQQKPGQPPKLLIYAASNVESGVPARFSGSGSGTDFSLNIHPVEEDDIAMYFCQQSMKVPLTFGAGTKLELK
notes: Murine hybridoma mAb, purified

Kd [2]: 122 pM
koff [2]: 0.000204 s⁻¹
kon [2]: 1.67e+06 M⁻¹ s⁻¹
B10: ch425 Fab (Fab, V domains shown)
VH: EVKLVESGGGLVKPGGSLKLSCAASGFTFSRYAMSWVRQIPEKRLEWVAAISSGGSLYFPDSVKGRFTISRDNARNICYLQMNSLRSDDTAMYYCARGREADGGYFDYWGQGTTLTVSS
VL: DIVLTQSPASLAVSLGQRATISCRASESVEYYGTSLMQWYQQKPGQPPKLLIYAASNVESGVPARFSGSGSGTDFSLNIHPVEEDDIAMYFCQQSMKVPLTFGAGTKLELKR
notes: as for B5

Kd [1]: 271 pM
koff [1]: 0.00012 s⁻¹
kon [1]: 444000 M⁻¹ s⁻¹
B11: Ab1 in human IgG4 format with S228P mutation (antibody, V domains shown)
VH: QVQLVQSGAEVKKPGSSVKVSCKASGYTFTSYNMHWVRQAPGQGLEWMGDIYPGNGDTSYNQKFKGRVTITADKSTSTVYMELSSLRSEDTAVYYCARVGGAFPMDYWGQGTTVTVSS
VL: AIQLTQSPSSLSASVGDRVTITCRASESVEYYGTSLMQWYQQKPGKAPKLLIYAASNVESGVPSRFSGSGSGTDFTLTISSLQPEDFATYFCQQSRKDPSTFGGGTKVEIK
notes: as for B1
